{"source": "patent US20180112002A1", "about": "(University of California, published 2018)", "binders": {"B1": {"name": "ARHGEF6 protein (Rho guanine nucleotide exchange factor 6) (other)", "chain": "MNPEEQIVTWLISLGVLESPKKTICDPEEFLKSSLKNGVVLCKLINRLMPGSVEKFCLDPQTEADCINNINDFLKGCATLQVEIFDPDDLYSGVNFSKVLSTLLAVNKATEDQLSERPCGRSSSLSAANTSQTNPQGAVSSTVSGLQRQSKTVEMTENGSHQLIVKARFNFKQTNEDELSVCKGDIIYVTRVEEGGWWEGTLNGRTGWFPSNYVREIKSSERPLSPKAVKGFETAPLTKNYYTVVLQNILDTEKEYAKELQSLLVTYLRPLQSNNNLSTVEVTSLLGNFEEVCTFQQTLCQALEECSKFPENQHKVGGCLLSLMPHFKSMYLAYCANHPSAVNVLTQHSDELEQFMENQGASSPGILILTTNLSKPFMRLEKYVTLLQELERHMEDTHPDHQDILKAIVAFKTLMGQCQDLRKRKQLELQILSEPIQAWEGEDIKNLGNVIFMSQVMVQYGACEEKEERYLMLFSNVLIMLSASPRMSGFIYQGKIPIAGTVVTRLDEIEGNDCTFEITGNTVERIVVHCNNNQDFQEWLEQLNRLIRGPASCSSLSKTSSSSCSAHSSFSSTGQPRGPLEPPQIIKPWSLSCLRPAPPLRPSAALGYKERMSYILKESSKSPKTMKKFLHKRKTERKPSEEEYVIRKSTAALEEDAQILKVIEAYCTSANFQQGHGSSTRKDSIPQVLLPEEEKLIIEETRSNGQTIMEEKSLVDTVYALKDEVRELKQENKRMKQCLEEELKSRRDLEKLVRRLLKQTDECIRGESSSKTSILP", "notes": "Endogenous protein of CLL and MEC1 cells"}, "B2": {"name": "CD19 (receptor, human, UniProt P15391 20-556, looked up)", "chain": "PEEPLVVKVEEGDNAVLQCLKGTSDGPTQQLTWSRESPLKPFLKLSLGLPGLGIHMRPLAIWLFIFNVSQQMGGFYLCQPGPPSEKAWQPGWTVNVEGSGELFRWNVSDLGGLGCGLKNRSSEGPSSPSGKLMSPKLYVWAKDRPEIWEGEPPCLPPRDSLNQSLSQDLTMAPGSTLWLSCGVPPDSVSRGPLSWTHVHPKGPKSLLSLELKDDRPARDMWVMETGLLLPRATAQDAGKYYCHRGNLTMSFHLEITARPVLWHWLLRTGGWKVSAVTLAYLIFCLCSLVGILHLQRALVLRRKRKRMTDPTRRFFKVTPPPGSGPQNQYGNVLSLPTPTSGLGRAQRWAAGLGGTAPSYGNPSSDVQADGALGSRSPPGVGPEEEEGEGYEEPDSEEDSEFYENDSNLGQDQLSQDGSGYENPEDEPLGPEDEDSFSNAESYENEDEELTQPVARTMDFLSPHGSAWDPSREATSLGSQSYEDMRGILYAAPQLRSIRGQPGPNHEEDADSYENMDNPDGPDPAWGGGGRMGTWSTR", "notes": "whole, on cells; Negative control for co-localization"}, "B3": {"name": "CD5 (receptor, human, UniProt P06127 25-495, looked up)", "chain": "RLSWYDPDFQARLTRSNSKCQGQLEVYLKDGWHMVCSQSWGRSSKQWEDPSQASKVCQRLNCGVPLSLGPFLVTYTPQSSIICYGQLGSFSNCSHSRNDMCHSLGLTCLEPQKTTPPTTRPPPTTTPEPTAPPRLQLVAQSGGQHCAGVVEFYSGSLGGTISYEAQDKTQDLENFLCNNLQCGSFLKHLPETEAGRAQDPGEPREHQPLPIQWKIQNSSCTSLEHCFRKIKPQKSGRVLALLCSGFQPKVQSRLVGGSSICEGTVEVRQGAQWAALCDSSSARSSLRWEEVCREQQCGSVNSYRVLDAGDPTSRGLFCPHQKLSQCHELWERNSYCKKVFVTCQDPNPAGLAAGTVASIILALVLLVVLLVVCGPLAYKKLVKKFRQKKQRQWIGPTGMNQNMSFHRNHTATVRSHAENPTASHVDNEYSQPPRNSHLSAYPALEGALHRSSMQPDNSSDSDYDLHGAQRL", "notes": "as for B2"}}, "key": {"[1]": {"target": "T1, ROR2 protein (tyrosine-protein kinase transmembrane receptor ROR2) (human, UniProt Q01974 34-943)", "T1 construct": "Endogenous ROR2 of CLL cells, normal B cells and MEC1 cells; also called NTRKR2", "T1 sequence (Q01974 34-943 limits assumed)": "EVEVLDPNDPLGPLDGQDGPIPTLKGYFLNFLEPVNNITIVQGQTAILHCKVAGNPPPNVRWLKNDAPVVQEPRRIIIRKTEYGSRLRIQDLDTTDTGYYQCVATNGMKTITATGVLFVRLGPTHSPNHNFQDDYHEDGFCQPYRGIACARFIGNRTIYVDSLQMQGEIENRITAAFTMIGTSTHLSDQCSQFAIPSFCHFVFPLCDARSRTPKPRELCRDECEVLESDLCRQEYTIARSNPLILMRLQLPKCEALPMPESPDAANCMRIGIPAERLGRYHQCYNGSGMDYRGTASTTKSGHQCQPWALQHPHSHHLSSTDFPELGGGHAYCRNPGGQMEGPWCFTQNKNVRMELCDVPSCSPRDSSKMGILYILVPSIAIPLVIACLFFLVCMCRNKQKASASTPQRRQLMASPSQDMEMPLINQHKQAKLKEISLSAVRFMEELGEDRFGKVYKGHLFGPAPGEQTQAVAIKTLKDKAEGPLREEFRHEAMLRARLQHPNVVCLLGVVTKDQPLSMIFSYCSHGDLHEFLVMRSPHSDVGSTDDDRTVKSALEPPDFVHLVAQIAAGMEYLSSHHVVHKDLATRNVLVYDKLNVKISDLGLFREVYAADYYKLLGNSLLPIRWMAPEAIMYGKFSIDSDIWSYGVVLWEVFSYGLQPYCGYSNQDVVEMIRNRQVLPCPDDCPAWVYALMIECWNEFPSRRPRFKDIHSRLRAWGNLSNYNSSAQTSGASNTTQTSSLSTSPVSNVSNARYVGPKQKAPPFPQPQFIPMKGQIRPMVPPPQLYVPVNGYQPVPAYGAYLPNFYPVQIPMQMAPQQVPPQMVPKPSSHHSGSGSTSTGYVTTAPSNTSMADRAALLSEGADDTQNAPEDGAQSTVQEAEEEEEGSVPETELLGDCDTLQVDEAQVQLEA", "experiment": "fluorescence confocal microscopy, Wnt5a-treated CLL cells"}, "[2]": {"target": "T2, ROR1 protein (tyrosine-protein kinase transmembrane receptor ROR1) (human, UniProt Q01973 30-937)", "T2 construct": "Endogenous ROR1 of CLL patients' cells, and full-length ROR1 expressed from a vector in the human CLL line MEC1 (MEC1-ROR1); also called NTRKR1; full-length ROR1", "T2 sequence (Q01973 30-937 limits assumed)": "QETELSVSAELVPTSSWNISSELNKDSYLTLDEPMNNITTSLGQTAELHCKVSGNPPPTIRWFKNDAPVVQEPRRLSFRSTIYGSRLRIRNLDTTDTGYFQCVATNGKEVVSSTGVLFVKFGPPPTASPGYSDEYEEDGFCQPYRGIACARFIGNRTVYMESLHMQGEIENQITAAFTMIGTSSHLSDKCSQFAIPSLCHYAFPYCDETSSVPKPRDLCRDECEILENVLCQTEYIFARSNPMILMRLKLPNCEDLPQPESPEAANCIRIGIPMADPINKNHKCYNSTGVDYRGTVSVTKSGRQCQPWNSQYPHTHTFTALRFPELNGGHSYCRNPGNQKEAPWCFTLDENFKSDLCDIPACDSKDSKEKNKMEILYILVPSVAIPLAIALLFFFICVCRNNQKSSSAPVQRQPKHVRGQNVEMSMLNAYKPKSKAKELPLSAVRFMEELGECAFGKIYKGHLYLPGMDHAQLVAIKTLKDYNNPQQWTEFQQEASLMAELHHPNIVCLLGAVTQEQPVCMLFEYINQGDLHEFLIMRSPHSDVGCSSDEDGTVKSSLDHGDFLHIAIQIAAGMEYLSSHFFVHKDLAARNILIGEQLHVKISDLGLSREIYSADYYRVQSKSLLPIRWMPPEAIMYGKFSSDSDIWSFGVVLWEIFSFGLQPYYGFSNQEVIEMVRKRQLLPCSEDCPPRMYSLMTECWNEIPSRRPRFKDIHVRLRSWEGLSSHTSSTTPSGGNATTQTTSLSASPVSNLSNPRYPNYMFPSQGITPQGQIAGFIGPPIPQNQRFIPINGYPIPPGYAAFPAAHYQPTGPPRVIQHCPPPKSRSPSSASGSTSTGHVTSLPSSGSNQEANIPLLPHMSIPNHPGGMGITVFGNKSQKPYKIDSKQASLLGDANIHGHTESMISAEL", "experiment": "fluorescence confocal microscopy, CLL cells", "protocol": "(§1) FIG. 9. Negative control for co-localization analysis by confocal microscopy. CLL cells were stained with anti-CD5-Alexa-647 and anti-CD19-Alexa-488; anti-ROR1-Alexa-647 and anti-CD19-Alexa-488; or anti-CD5-Alexa-647 and anti-ROR2-Alexa-488 for evaluation by confocal microscopy (Scale bar: 2 μm). There is no co-localization between CD5 and CD19, ROR1 and CD19, or CD5 and ROR2.\n(§2) However, it was difficult to detect co-localization of ROR1 with ROR2 in cultured CLL cells unless they were treated with exogenous Wnt5a (FIG. 3b)."}, "CD19": {"target": "B2", "experiment": "fluorescence confocal microscopy, CLL cells", "protocol": "as §1, §2"}, "[3]": {"target": "T1, ROR2 protein (tyrosine-protein kinase …)", "experiment": "fluorescence confocal microscopy, CLL cells", "protocol": "as §1, §2"}}}
{"binder": "B1", "values": [{"measurement": "binding result", "setting": "[1]", "value": "binds"}]}
{"binder": "B2", "values": [{"measurement": "binding result", "setting": "[2]", "value": "no binding"}]}
{"binder": "B3", "values": [{"measurement": "binding result", "setting": "CD19", "value": "no binding"}, {"measurement": "binding result", "setting": "[3]", "value": "no binding"}]}
